Results reported in patent publication US20260167699A1 (Chugai, published 2026).

B1: GpH7-A5/GpH7-B3 variant G236_07I/GpL16-k0 (antibody, human IgG1, kappa)
heavy 1: not shown
heavy 2: not shown
light: DIVMTQSPLSLPVTPGEPASISCQASESLVHSNRNTYLHWYLQKPGQSPQLLIYKVSNRFSGVPDRFSGSGSGTDFTLKISRVEAEDVGVYYCSQNTHVPPTFGQGTKVEIERTVAAPSVFIFPPSDEQLKSGTASVVCLLNNFYPREAKVQWKVDNALQSGNSQESVTEQDSKDSTYSLSSTLTLSKADYEKHKVYACEVTHQGLSSPVTKSFNRGEC
notes: He Ab; copies: 1 + 1 + 2
B2: GpH7-A5/GpH7-B3 variant H268_04F/GpL16-k0 (antibody, human IgG1, kappa)
heavy 1: not shown
heavy 2: not shown
light: DIVMTQSPLSLPVTPGEPASISCQASESLVHSNRNTYLHWYLQKPGQSPQLLIYKVSNRFSGVPDRFSGSGSGTDFTLKISRVEAEDVGVYYCSQNTHVPPTFGQGTKVEIERTVAAPSVFIFPPSDEQLKSGTASVVCLLNNFYPREAKVQWKVDNALQSGNSQESVTEQDSKDSTYSLSSTLTLSKADYEKHKVYACEVTHQGLSSPVTKSFNRGEC
notes: He Ab; copies: 1 + 1 + 2
B3: GpH7-A5/GpH7-B3 variant H268_03V/GpL16-k0 (antibody, human IgG1, kappa)
heavy 1: not shown
heavy 2: not shown
light: DIVMTQSPLSLPVTPGEPASISCQASESLVHSNRNTYLHWYLQKPGQSPQLLIYKVSNRFSGVPDRFSGSGSGTDFTLKISRVEAEDVGVYYCSQNTHVPPTFGQGTKVEIERTVAAPSVFIFPPSDEQLKSGTASVVCLLNNFYPREAKVQWKVDNALQSGNSQESVTEQDSKDSTYSLSSTLTLSKADYEKHKVYACEVTHQGLSSPVTKSFNRGEC
notes: He Ab; copies: 1 + 1 + 2
B4: GpH7-A5/GpH7-B3 variant G237_14T/GpL16-k0 (antibody, human IgG1, kappa)
heavy 1: not shown
heavy 2: not shown
light: DIVMTQSPLSLPVTPGEPASISCQASESLVHSNRNTYLHWYLQKPGQSPQLLIYKVSNRFSGVPDRFSGSGSGTDFTLKISRVEAEDVGVYYCSQNTHVPPTFGQGTKVEIERTVAAPSVFIFPPSDEQLKSGTASVVCLLNNFYPREAKVQWKVDNALQSGNSQESVTEQDSKDSTYSLSSTLTLSKADYEKHKVYACEVTHQGLSSPVTKSFNRGEC
notes: He Ab; copies: 1 + 1 + 2
B5: GpH7-A5/GpH7-B3 variant G237_03V/GpL16-k0 (antibody, human IgG1, kappa)
heavy 1: not shown
heavy 2: not shown
light: DIVMTQSPLSLPVTPGEPASISCQASESLVHSNRNTYLHWYLQKPGQSPQLLIYKVSNRFSGVPDRFSGSGSGTDFTLKISRVEAEDVGVYYCSQNTHVPPTFGQGTKVEIERTVAAPSVFIFPPSDEQLKSGTASVVCLLNNFYPREAKVQWKVDNALQSGNSQESVTEQDSKDSTYSLSSTLTLSKADYEKHKVYACEVTHQGLSSPVTKSFNRGEC
notes: He Ab; copies: 1 + 1 + 2
B6: GpH7-A5/GpH7-B3 variant G236_09D/GpL16-k0 (antibody, human IgG1, kappa)
heavy 1: not shown
heavy 2: not shown
light: DIVMTQSPLSLPVTPGEPASISCQASESLVHSNRNTYLHWYLQKPGQSPQLLIYKVSNRFSGVPDRFSGSGSGTDFTLKISRVEAEDVGVYYCSQNTHVPPTFGQGTKVEIERTVAAPSVFIFPPSDEQLKSGTASVVCLLNNFYPREAKVQWKVDNALQSGNSQESVTEQDSKDSTYSLSSTLTLSKADYEKHKVYACEVTHQGLSSPVTKSFNRGEC
notes: He Ab; copies: 1 + 1 + 2
B7: GpH7-A5/GpH7-B3 variant H268_01G/GpL16-k0 (antibody, human IgG1, kappa)
heavy 1: not shown
heavy 2: not shown
light: DIVMTQSPLSLPVTPGEPASISCQASESLVHSNRNTYLHWYLQKPGQSPQLLIYKVSNRFSGVPDRFSGSGSGTDFTLKISRVEAEDVGVYYCSQNTHVPPTFGQGTKVEIERTVAAPSVFIFPPSDEQLKSGTASVVCLLNNFYPREAKVQWKVDNALQSGNSQESVTEQDSKDSTYSLSSTLTLSKADYEKHKVYACEVTHQGLSSPVTKSFNRGEC
notes: He Ab; copies: 1 + 1 + 2
B8: GpH7-A5/GpH7-B3 variant G236_10E/GpL16-k0 (antibody, human IgG1, kappa)
heavy 1: not shown
heavy 2: not shown
light: DIVMTQSPLSLPVTPGEPASISCQASESLVHSNRNTYLHWYLQKPGQSPQLLIYKVSNRFSGVPDRFSGSGSGTDFTLKISRVEAEDVGVYYCSQNTHVPPTFGQGTKVEIERTVAAPSVFIFPPSDEQLKSGTASVVCLLNNFYPREAKVQWKVDNALQSGNSQESVTEQDSKDSTYSLSSTLTLSKADYEKHKVYACEVTHQGLSSPVTKSFNRGEC
notes: He Ab; copies: 1 + 1 + 2
B9: GpH7-A5/GpH7-B3 variant H268_08L/GpL16-k0 (antibody, human IgG1, kappa)
heavy 1: not shown
heavy 2: not shown
light: DIVMTQSPLSLPVTPGEPASISCQASESLVHSNRNTYLHWYLQKPGQSPQLLIYKVSNRFSGVPDRFSGSGSGTDFTLKISRVEAEDVGVYYCSQNTHVPPTFGQGTKVEIERTVAAPSVFIFPPSDEQLKSGTASVVCLLNNFYPREAKVQWKVDNALQSGNSQESVTEQDSKDSTYSLSSTLTLSKADYEKHKVYACEVTHQGLSSPVTKSFNRGEC
notes: He Ab; copies: 1 + 1 + 2
B10: GpH7-A5/GpH7-B3 variant H268_07I/GpL16-k0 (antibody, human IgG1, kappa)
heavy 1: not shown
heavy 2: not shown
light: DIVMTQSPLSLPVTPGEPASISCQASESLVHSNRNTYLHWYLQKPGQSPQLLIYKVSNRFSGVPDRFSGSGSGTDFTLKISRVEAEDVGVYYCSQNTHVPPTFGQGTKVEIERTVAAPSVFIFPPSDEQLKSGTASVVCLLNNFYPREAKVQWKVDNALQSGNSQESVTEQDSKDSTYSLSSTLTLSKADYEKHKVYACEVTHQGLSSPVTKSFNRGEC
notes: He Ab; copies: 1 + 1 + 2
B11: GpH7-A5/GpH7-B3 variant H268_02A/GpL16-k0 (antibody, human IgG1, kappa)
heavy 1: not shown
heavy 2: not shown
light: DIVMTQSPLSLPVTPGEPASISCQASESLVHSNRNTYLHWYLQKPGQSPQLLIYKVSNRFSGVPDRFSGSGSGTDFTLKISRVEAEDVGVYYCSQNTHVPPTFGQGTKVEIERTVAAPSVFIFPPSDEQLKSGTASVVCLLNNFYPREAKVQWKVDNALQSGNSQESVTEQDSKDSTYSLSSTLTLSKADYEKHKVYACEVTHQGLSSPVTKSFNRGEC
notes: He Ab; copies: 1 + 1 + 2
B12: GpH7-A5/GpH7-B3 variant H268_09D/GpL16-k0 (antibody, human IgG1, kappa)
heavy 1: not shown
heavy 2: not shown
light: DIVMTQSPLSLPVTPGEPASISCQASESLVHSNRNTYLHWYLQKPGQSPQLLIYKVSNRFSGVPDRFSGSGSGTDFTLKISRVEAEDVGVYYCSQNTHVPPTFGQGTKVEIERTVAAPSVFIFPPSDEQLKSGTASVVCLLNNFYPREAKVQWKVDNALQSGNSQESVTEQDSKDSTYSLSSTLTLSKADYEKHKVYACEVTHQGLSSPVTKSFNRGEC
notes: He Ab; copies: 1 + 1 + 2
B13: GpH7-A5/GpH7-B3 variant H268_06M/GpL16-k0 (antibody, human IgG1, kappa)
heavy 1: not shown
heavy 2: not shown
light: DIVMTQSPLSLPVTPGEPASISCQASESLVHSNRNTYLHWYLQKPGQSPQLLIYKVSNRFSGVPDRFSGSGSGTDFTLKISRVEAEDVGVYYCSQNTHVPPTFGQGTKVEIERTVAAPSVFIFPPSDEQLKSGTASVVCLLNNFYPREAKVQWKVDNALQSGNSQESVTEQDSKDSTYSLSSTLTLSKADYEKHKVYACEVTHQGLSSPVTKSFNRGEC
notes: He Ab; copies: 1 + 1 + 2
B14: GpH7-A5/GpH7-B3 variant G236_20W/GpL16-k0 (antibody, human IgG1, kappa)
heavy 1: not shown
heavy 2: not shown
light: DIVMTQSPLSLPVTPGEPASISCQASESLVHSNRNTYLHWYLQKPGQSPQLLIYKVSNRFSGVPDRFSGSGSGTDFTLKISRVEAEDVGVYYCSQNTHVPPTFGQGTKVEIERTVAAPSVFIFPPSDEQLKSGTASVVCLLNNFYPREAKVQWKVDNALQSGNSQESVTEQDSKDSTYSLSSTLTLSKADYEKHKVYACEVTHQGLSSPVTKSFNRGEC
notes: He Ab; copies: 1 + 1 + 2
B15: GpH7-A5/GpH7-B3 variant G236_15Y/GpL16-k0 (antibody, human IgG1, kappa)
heavy 1: not shown
heavy 2: not shown
light: DIVMTQSPLSLPVTPGEPASISCQASESLVHSNRNTYLHWYLQKPGQSPQLLIYKVSNRFSGVPDRFSGSGSGTDFTLKISRVEAEDVGVYYCSQNTHVPPTFGQGTKVEIERTVAAPSVFIFPPSDEQLKSGTASVVCLLNNFYPREAKVQWKVDNALQSGNSQESVTEQDSKDSTYSLSSTLTLSKADYEKHKVYACEVTHQGLSSPVTKSFNRGEC
notes: He Ab; copies: 1 + 1 + 2
B16: GpH7-A5/GpH7-B3 variant H268_10E/GpL16-k0 (antibody, human IgG1, kappa)
heavy 1: not shown
heavy 2: not shown
light: DIVMTQSPLSLPVTPGEPASISCQASESLVHSNRNTYLHWYLQKPGQSPQLLIYKVSNRFSGVPDRFSGSGSGTDFTLKISRVEAEDVGVYYCSQNTHVPPTFGQGTKVEIERTVAAPSVFIFPPSDEQLKSGTASVVCLLNNFYPREAKVQWKVDNALQSGNSQESVTEQDSKDSTYSLSSTLTLSKADYEKHKVYACEVTHQGLSSPVTKSFNRGEC
notes: He Ab; copies: 1 + 1 + 2

Molecular target: T1, FcγRIIIa extracellular domain, C-terminal His tag (human, UniProt P08637 17-208)
T1 construct: extracellular domain; also called 3a
T1 sequence (P08637 other isoform, or with tags, fused parts or gaps): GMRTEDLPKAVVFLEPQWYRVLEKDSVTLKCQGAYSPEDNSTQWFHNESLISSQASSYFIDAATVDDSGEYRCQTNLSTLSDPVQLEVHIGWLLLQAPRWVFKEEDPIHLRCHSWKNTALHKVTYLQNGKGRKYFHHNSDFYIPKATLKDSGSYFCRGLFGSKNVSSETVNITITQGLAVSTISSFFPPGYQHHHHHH
Experiment: SPR, binding activity relative to GpH7-A5/GpH7-B3/GpL16-k0 (=100)

In order of rising “He/Con 3a” value:
1. B4  50.5%
2. B5  51.3%
3. B1  55.6%
4. B8  65.8%
5. B6  66.2%
6. B9  75.9%
7. B13  79.5%
8. B10  84.1%
9. B3  91.4%
10. B7  95.7%
11. B2  96%
12. B15  112%
13. B11  121%
14. B14  126%
15. B16  184%
16. B12  195%
